Data reported in patent US20220389097A1 (Genentech, published 2022).
Blank lines part the entries; values can stand above or below the binder they belong to.

Key:
[1] = target: T1, human TREM2-Fc (human, UniProt Q9NZC2 19-174); experiment: SPR (Biacore T200), 37 C; TREM2-Fc on protein A chip, soluble Fab
T1 construct: also called hTREM2; not shown: Fc part (captured by anti-human IgG1 Fc or protein A)
T1 sequence: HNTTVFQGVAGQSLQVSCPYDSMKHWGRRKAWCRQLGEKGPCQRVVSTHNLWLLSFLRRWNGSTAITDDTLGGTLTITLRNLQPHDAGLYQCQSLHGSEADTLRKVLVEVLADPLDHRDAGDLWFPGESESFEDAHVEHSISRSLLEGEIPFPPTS
Protocol: (§1) Affinity of h3.10C2.v1 (FIGS. 9A-B) for human and cynomolgus TREM2 was determined by SPR in a Biacore™ T200 apparatus in two formats, both at 37° C. In one format TREM2-Fc was immobilized on protein A chips and soluble anti-TREM2 Fab fragments used as ligands. In the second format, anti-TREM2 IgG was immobilized on anti-CH1 Biacore™ chips and used soluble monomeric TREM2 as ligand.

[2] = target: T2, cynomolgus TREM2-Fc (cynomolgus monkey, UniProt A0A2K5UY34 49-204); experiment: as above
T2 construct: also called cyno TREM2; not shown: Fc part
T2 sequence: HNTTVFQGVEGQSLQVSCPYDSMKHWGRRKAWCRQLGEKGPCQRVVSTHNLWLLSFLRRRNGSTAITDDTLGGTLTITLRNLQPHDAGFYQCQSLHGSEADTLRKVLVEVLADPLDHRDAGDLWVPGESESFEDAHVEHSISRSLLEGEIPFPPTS
Protocol: as §1

[3] = target: T1, human TREM2-Fc; experiment: SPR (Biacore T200), 37 C; TREM2-Fc on protein A chip, Fab in solution
Protocol: The humanized heavy chain variants were tested for affinity by combining the heavy chain variants with the 3.10C2-L1 light chain. These variants were expressed as Fab fragments, purified by protein A chromatography, and tested for affinity for TREM2-Fc coated on a protein A chip with a Biacore™ T200 apparatus.

[4] = target: T3, human TREM2 on cells (human, UniProt Q9NZC2 19-230); experiment: cell-based or functional assay
T3 sequence: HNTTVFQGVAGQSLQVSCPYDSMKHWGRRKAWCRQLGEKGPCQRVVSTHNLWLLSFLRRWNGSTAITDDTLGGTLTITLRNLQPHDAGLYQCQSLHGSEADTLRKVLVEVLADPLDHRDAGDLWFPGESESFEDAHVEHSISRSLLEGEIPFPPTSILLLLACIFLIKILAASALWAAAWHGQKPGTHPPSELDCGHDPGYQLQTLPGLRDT

[5] = target: T3, human TREM2 on cells; experiment: cell-based or functional assay; remark: listed apart in the source
[6] = target: T4, soluble monomeric human TREM2 (human, UniProt Q9NZC2 19-174, limits assumed); experiment: SPR (Biacore T200), 37 C; IgG on anti-CH1 chip, soluble monomeric TREM2
T4 construct: Not the same as shed sTREM2; also called soluble monomeric TREM2
T4 sequence: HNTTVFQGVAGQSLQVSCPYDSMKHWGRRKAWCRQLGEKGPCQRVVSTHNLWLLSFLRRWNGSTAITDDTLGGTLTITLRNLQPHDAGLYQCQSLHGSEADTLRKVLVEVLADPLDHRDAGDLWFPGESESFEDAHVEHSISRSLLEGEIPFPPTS

B3: 3.10C2-H4/3.10C2-L1 Fab (Fab, V domains shown)
VH: EVQLVESGGGLVQPGGSLKLSCAASGFPFSNVWMHWVRQASGKGLEWIGHIKAKSDNYATYYAESVKGRFTISRDDSKNTIYLQMNSLKTEDTAVYYCTGLDYWGQGTTVTVSS
VL: DTVLTQSPLSLPVTPGEPASISCRSSKSLLGVRDITSLYWYLQKPGQSPQLLIYRMSNLASGVPDRFSGSGSETDFTLKISRVEAEDVGVYYCAQFLRYPYTFGQGTKVEIK
koff [3]: 0.024 s⁻¹
kon [3]: 1.2e+06 M⁻¹ s⁻¹

B4: 3.10C2-H2/3.10C2-L1 Fab (Fab, V domains shown)
VH: EVQLVESGGGLVQPGGSLKLSCATSGFPFSNVWMHWVRQASGKGLEWVGHIKAKSDNYATYYAESVKGRFTISRDDSKNTIYLQMNSLKTEDTAVYYCTGLDYWGQGTTVTVSS
VL: DTVLTQSPLSLPVTPGEPASISCRSSKSLLGVRDITSLYWYLQKPGQSPQLLIYRMSNLASGVPDRFSGSGSETDFTLKISRVEAEDVGVYYCAQFLRYPYTFGQGTKVEIK
koff [3]: 0.0059 s⁻¹
kon [3]: 520000 M⁻¹ s⁻¹

B7: h3.10C2.v1 hIgG1 N297G (antibody, V domains shown)
VH: EVQLVESGGGLVQPGGSLKLSCATSGFPFSNVWMHWVRQASGKGLEWIAHIKAKSDNYATYYAESVKGRFTISRDDSKTTIYLQMNSLKTEDTAVYYCTGLDYWGQGTTVTVSS
VL: DVVMTQSPLSLPVTPGEPASISCRSSRSLLTSKGITSLYWYLQKPGQSPQLLIYRMSNLASGVPDRFSGSGSGTDFTLKISRVEAEDVGVYYCAQFLVYPYTFGQGTKVEIK
notes: Human IgG1 N297G; also called h3.10C2.v1.huIgG1.N297G
EC50, average X04 plaque intensity, human iPSC-derived microglia plaque assay (FIG. 24C) [4]: 11 nM
EC50, survival of iPSC-derived microglia (FIG. 23E) [4]: 0.35 nM
EC50, total Abeta plaque intensity, human iPSC-derived microglia plaque assay (FIG. 24B) [4]: 130 nM
Kd [6]: 0.42 nM
koff [6]: 0.00035 s⁻¹
kon [6]: 840000 M⁻¹ s⁻¹
EC50, Jurkat NFAT luciferase reporter cells [5]: 0.076 µg/mL
IC50, TREM2 shedding inhibition in Jurkat-NFAT reporter cells (sTREM2 ELISA) [5]: 0.975 µg/mL

Second part, led by results:

Kd [1]: 0.39 nM
koff [1]: 0.00057 s⁻¹
kon [1]: 1.5e+06 M⁻¹ s⁻¹
Kd [2]: 0.43 nM
koff [2]: 0.00062 s⁻¹
kon [2]: 1.4e+06 M⁻¹ s⁻¹
B1: h3.10C2.v1 Fab (Fab, V domains shown)
VH: EVQLVESGGGLVQPGGSLKLSCATSGFPFSNVWMHWVRQASGKGLEWIAHIKAKSDNYATYYAESVKGRFTISRDDSKTTIYLQMNSLKTEDTAVYYCTGLDYWGQGTTVTVSS
VL: DVVMTQSPLSLPVTPGEPASISCRSSRSLLTSKGITSLYWYLQKPGQSPQLLIYRMSNLASGVPDRFSGSGSGTDFTLKISRVEAEDVGVYYCAQFLVYPYTFGQGTKVEIK
notes: also called 3.10C2-H1/3.27H7-L6

koff [3]: 0.018 s⁻¹
kon [3]: 1.2e+06 M⁻¹ s⁻¹
B2: 3.10C2-H7/3.10C2-L1 Fab (Fab, V domains shown)
VH: EVQLVESGGGLVQPGGSLKLSCATSGFPFSNVWMHWVRQASGKGLEWVAHIKAKSDNYATYYAESVKGRFTISRDDSKNTAYLQMNSLKTEDTAVYYCTGLDYWGQGTTVTVSS
VL: DTVLTQSPLSLPVTPGEPASISCRSSKSLLGVRDITSLYWYLQKPGQSPQLLIYRMSNLASGVPDRFSGSGSETDFTLKISRVEAEDVGVYYCAQFLRYPYTFGQGTKVEIK

EC50, average X04 plaque intensity, human iPSC-derived microglia plaque assay (FIG. 24C) [4]: 40 nM
EC50, total Abeta plaque intensity, human iPSC-derived microglia plaque assay (FIG. 24B) [4]: 770 nM
phospho-SYK/total SYK relative to anti-gD control, iPSC-derived microglia, 1 hour [4]: 2 fold
phospho-SYK/total SYK relative to anti-gD control, iPSC-derived microglia, 4 hours [4]: > 10 fold
EC50, Jurkat NFAT luciferase reporter cells [5]: 0.0232 µg/mL
IC50, TREM2 shedding inhibition in Jurkat-NFAT reporter cells (sTREM2 ELISA) [5]: 0.114 µg/mL
B5: hPara.09.v2 Q100P/V104L (antibody, human IgG1, V domains shown)
VH: EVQLVESGGGLVQPGGSLKLSCATSGFPFSNVWLHWVRQASGKGPEWVAHIKAKSDNYATYYAESVKGRFTISRDDSKNTVYLQMNSLKTEDTAVYYCTDILEYWGQGTLVTVSS
VL: DVVMTQSPLSLPVTPGEPASISCRSSRSLLTSKGITSLYWYLQKPGQSPQLLIYRMSNLASGIPDRFSGSGSGTDFTLKISRVEAEDVGVYYCAQFLVYPYTFGPGTKLEIK
EC50, survival of iPSC-derived microglia (FIG. 23E) [4]: 0.19 nM

Kd [1]: 0.021 nM
koff [1]: 6.1e-05 s⁻¹
kon [1]: 3e+06 M⁻¹ s⁻¹
Kd [2]: 0.022 nM
koff [2]: 6.3e-05 s⁻¹
kon [2]: 2.9e+06 M⁻¹ s⁻¹
B6: hPara.09.v2 Fab (Fab, V domains shown)
VH: EVQLVESGGGLVQPGGSLKLSCATSGFPFSNVWLHWVRQASGKGPEWVAHIKAKSDNYATYYAESVKGRFTISRDDSKNTVYLQMNSLKTEDTAVYYCTDILEYWGQGTLVTVSS
VL: DVVMTQSPLSLPVTPGEPASISCRSSRSLLTSKGITSLYWYLQKPGQSPQLLIYRMSNLASGIPDRFSGSGSGTDFTLKISRVEAEDVGVYYCAQFLVYPYTFGQGTKVEIK
notes: also called Para.09-H5/3.27H7-L6
